According to the nanobody polyreactivity screen of Harvey et al. (2022):

Assay: yeast display, Sf9 membrane polyspecificity reagent, FACS + sequencing; frameworks hold sequencing errors
How it was run: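 Nanobodies came from a synthetic yeast display library in Saccharomyces cerevisiae BJ5465, induced with galactose for 36–48 hours and stained for 1 hour at 4 °C with 10% biotinylated, detergent-solubilized Sf9 membrane reagent. Cells were enriched on streptavidin microbeads and then FACS-sorted, with low and high (top ~1%) gates set on anti-HA fluorescence for expression and streptavidin fluorescence for reagent binding. Each polyreactivity label reflects the gate a clone came from. Genes were amplified by colony PCR, sequenced by MiSeq 2 × 250 and filtered by CDR length.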

For “QVQLVESGGGLVQAGGSLRLSCAASGIIWYYAMGWYRQAPGKERELVAAISWSSGSTYYADSVKGRFTISRDNAKNTVYLQMNSLKPEDSAVYYCAADVYLVKYDYWGQGTQVTVSS”, the “polyreactivity (PSR sort gate)” value was “high polyreactivity”.

With “QVQLVESGGGLVQAGGSLRLSCVASGFTFIRYAMGWYRQAPGKERELVASITRGGSTYYADSVKGRFTISRDNAKYTVYLQMNSLKPEDTAVYYCATTSYYGYDYWGQGTQVTVSS” the “polyreactivity (PSR sort gate)” value was “high polyreactivity”.

In the case of “QVQLVESGGGLVQAGGSLRLSCAASGSTFYLYGMGWYRQAPGKERELVAAITYSGGSTYYADSVKGRFTISRDNAKNTVYLQMNSLKPEDTAVYYCNARSQWRSSRFYYWGQGTQVTVPS”, the “polyreactivity (PSR sort gate)” value is reported as “high polyreactivity”.

In the case of “QVQLQESGGGLVQAGGSLLSCAASGTISWVDEMGWYRQAPGNERELVAGIAGGGNTNYADSVKGRFTISRDNAKNTVYLQMNSLDTAVYSCAVVGFGRGTHIYWGQGTQVTVSS”, the “polyreactivity (PSR sort gate)” value is reported as “high polyreactivity”.

With “QVQLVESGGGLVQAGGSLRLSCAASGRIFGIYAMGWYRQAPGKERELVASITDGTITNYADSVKGRFTISRDNAKNTVYLQMNSLIPEDTAVYYCAAGTQAHAYVVRPIEMDYWGQGTQVTVSS” the “polyreactivity (PSR sort gate)” value was “low polyreactivity”.

With “QVQLVESGGGLVQAGGSLRLSCAASGITFKYYAMGWYRQAPGKERELVAAISRGGTTSYADSVKGRFTISRDNAKNTVYLQMNSLKPEETAVYYCAAKYWWYPYFTVDYDYWGQGTQVTVSS” the “polyreactivity (PSR sort gate)” value was “high polyreactivity”.

In the case of “QVQLVESGGGLVQAGGSLRVSCAASGFTFGYYGMGWYRQAPGKERELVAAISWSGGSTYYADSVKGRFTISRDNAKYTVYLQMNSLKPEVTAVYYCNADYAGFYQRRYIEDDYWGQGTQVTVSS”, the “polyreactivity (PSR sort gate)” value is reported as “low polyreactivity”.

In the case of “QVQLGESGGGLLQAGGSLRLSCAASGFTFYGYAMGWYRQAPGKERELVAAISRRGGSTYYADSVKGRFTISRDNAKYTVYVQMNSLKPEDTAVYYCITLFSHLRDRYDYWGQGTEVTVSS”, the “polyreactivity (PSR sort gate)” value is reported as “high polyreactivity”.

With “QVQLVESGGGLVHAGGSLRIICAASGRIFYIYAMGWYRQAPGKERELVAAITKSGGSTTHYADSVKGRFTISRDNAKNTVYLQMNSLKPEDTEVYYCAVDARYSRSKYGYWGHGTQVTVSS” the “polyreactivity (PSR sort gate)” value was “high polyreactivity”.

With “QVQLVESGGGLVQAGGSLRLSCAASGMTFTSNVLGWYRQAHGKERELVAAISSGGSTYDADSVKGRFTMSRDNAKNTVYLQMNSLKPEDTAVYYCNSKLWGQYDYWGQGTQVTVSS” the “polyreactivity (PSR sort gate)” value was “low polyreactivity”.

For “QVQLVESGGGLVQAGGRLRISCAASGFTFDLYAMGWYRQAPGKERELVAAISWSGGSTRYADSVKGRFTISRDNAKNTVYLQMNSLKPEDTAVSYCARQPRLYFKGKLYGYWGQGTQVTVSS”, the “polyreactivity (PSR sort gate)” value was “high polyreactivity”.

For “QVQLVETGGGLVQAGGSLRLSCAASGLTFYVYAMGWYRQAPGKERELVAAISSGGRTYYADSVKGRFTISRDNAKNTVYLQMNSLKPEDTAVYYCAAVRHRNYGYWGQGTQVTVSS”, the “polyreactivity (PSR sort gate)” value was “high polyreactivity”.

In the case of “QVHHVESGGGLVQAGGNLRLSCQASGSTFDENDMGWYRQPQGKERELVAVISICTSTNYADSVKGRFTISRDNAKNTVYLQMNSLKPEDTAVYYFDAFVPGSYLDAIVGNAFNYWGQGTQVTVSS”, the “polyreactivity (PSR sort gate)” value is reported as “low polyreactivity”.

In the case of “QVQLVESGGGLVQAGGSLRLSCAPSGSIFVYYGMGWYRQAPRKERELVAAISSGGSTHYADSVKGRFTISRDNAKITVYLQMNSLKPEDTAVYYCAADRFFWLRSYPRYYYWGQGTQVTVSS”, the “polyreactivity (PSR sort gate)” value is reported as “low polyreactivity”.

For “QVQLEESGGGLVQAGGRLRLSCSASGFICGSNAMGWYRQAPGKERELVAAISARGGSTYYADSVKGRFTISRDNAKNPVYLQMNSLKPEDTAVYYCNTGTSGRFLSFGNFDYWGQGTQVTVSS”, the “polyreactivity (PSR sort gate)” value was “high polyreactivity”.

For “QVQLEESGGGLVHAGGILRLSCAASGYTFYYNAMGWYRQAPGKERELVAAISRSRDTTYYADSVKGRFTISRDNAKYTVYLQMYSLKPEDTEVYYCNAVVQVLADFQKYDYWGQGSQVTVSS”, the “polyreactivity (PSR sort gate)” value was “low polyreactivity”.

In the case of “QVQLVESGGGLVQAGGSLRLSCAASGFIFYKYAMGWYRQAPGKERELVAAITARGGSTYYADSVKGRFTISRDNAKNTVYLQMNSLKPEDTAVYYCAADTYFSGAGGQAYQYDYWGQGTQVTVSS”, the “polyreactivity (PSR sort gate)” value is reported as “high polyreactivity”.

With “QDQHVESVGGLVQAGGRLRLSSAASGLIFFDSPMVSDRQAPGKERELVAAISTTGGSTYYADSVKGRCTISRDNAKNSVYLEMNSLKPEDTAVYYCNARFVHHSWGTNYYWGQGTQVTVSS” the “polyreactivity (PSR sort gate)” value was “high polyreactivity”.

For “QVQLVESGGGLVQAGGSLRLSCAASGRTFAKYAMGWYRQAPGKERELVAAINSSGGSTYYADSVKGRFTISRDNAKNTVYLQMNSLKPEDTAVYYCAALGIGSYRRYSGYDYWGQGTQVTVSS”, the “polyreactivity (PSR sort gate)” value was “low polyreactivity”.

In the case of “QVQLVESGGGLVQAGGSLRLSCAASGSTFTTYGMGWYRQAPGKERELVAAISLSSGRTYYADSVKGRFTISRDNAKNTVYLQMNSLKPEDTAVYYCNKRSQKPSQYKPYGYWGQGTQVTVSS”, the “polyreactivity (PSR sort gate)” value is reported as “high polyreactivity”.

In the case of “QVQLVESGGGIVQAGGSLRLICAASGFTFGYYTMGWYRQAPGKEREFVAAISGSGTNTYYADSVKGRFTISRDYAKNTVYLQMNSLKPEYTAVYYCNARWSLVSSGFDGGYWGQGSQVTVSS”, the “polyreactivity (PSR sort gate)” value is reported as “high polyreactivity”.

In the case of “QVQLVESGGGLVQAGGSHRLSCDASGRTFYRNAMGWYRQAPGKERELVAGISSRGGSTYYADSVKGRFTISRDNAKNTVYLQMISLKPEDTAVYYCAATSSPYSIYNSWGQGTQVTVSS”, the “polyreactivity (PSR sort gate)” value is reported as “high polyreactivity”.

For “QVQLVESGGGLVQAGGSLRLSCAASGRTFGYNAMGWYRQAPGKEREFVAAISGSGGRTYYADSVKGRFTISRDNAKNTVYLQMNSQKPEDTAVYYCAAGFGDGPGNGYYTRYSWDDDYWGQGTQVTVSS”, the “polyreactivity (PSR sort gate)” value was “low polyreactivity”.

With “QVQLVESGGGLVQAGGSLRLSCAASGNTLRTYGMGWYRQAPGKEREFVAAITYSGGSTYYADSVKGRFTISRDNAKNTVYLQMNSLKPEDTAVYYCAARYRSHYRRITPYDSWGQGTQVTVSS” the “polyreactivity (PSR sort gate)” value was “high polyreactivity”.

For “QVQLVESGGGLVQAGGSLRLSCAASGFTFSSYAMGWYRQAPGKERELVAAISSSGSRTYYADSVKGRFTISRDNAKNTVYLQMNSLKPEDTAVYYCAARPGDGGYYYWGQGTQVTVSS”, the “polyreactivity (PSR sort gate)” value was “high polyreactivity”.

With “QVQLVESWGGLVQAGGSLRLSCAASGITFSNYAMGWYRQAPGKERELVAAISKRGGSTYYADSVKGRFTISRDTAKYTVYLQMNSLKPEDTAVYYCAAAGVRVYVRSVLDYWGQGTQVTVSS” the “polyreactivity (PSR sort gate)” value was “high polyreactivity”.

In the case of “QVQHVESGGGLVQAGGSLRLSCAASGRTLYRYAMGWSRQAPRKERELVAAIRSGGRTNYADSVKGRFTISRDNAKNTVYLQMNSLKPEDTAVYYCAARTLRYPSTFEYWGQGTQVTVSS”, the “polyreactivity (PSR sort gate)” value is reported as “high polyreactivity”.

For “QVQLVESGGGLVQAGGSLRLSCAASGSTFYEYAMGWYRQAPGKERELVAAISSGGSTYYADSVKGRFTISRDNAKNTVYLQMNSLKPEDTAVYYCNADCQTYGGEYDYWGQGTQVTVSS”, the “polyreactivity (PSR sort gate)” value was “low polyreactivity”.

For “QVQLVESGGGLVQAGGSLRLSCAASGFTFYKYVMGWYRQAPGKERELVAAITQGGGSTYYADSVKGRFTISRDNAKNTVYLQMNSLKPEDTAVYYCAAVTRGSRGVNFGYWGQGTQVTVSS”, the “polyreactivity (PSR sort gate)” value was “high polyreactivity”.

With “QVQLVESGGGLVQAGGSLRLSCAASGSILSYYAMGWYRQAPGKERELVAAISSTGSTNYADSVKGRFTISRDNAKNTLYLQMNSLKPEDTAVYYCATDGDPYADEGGYWGQGTQVTVSS” the “polyreactivity (PSR sort gate)” value was “high polyreactivity”.

For “QVQLVESGGGLVQAGGSLRLSCAASGFTFSRNDMGWYRQAPGKERELVASITTSGGGTYYADSVKGRFTISRDKAKNTVYLQMNSLKPEDTAVYYCAAEYYSIRYGPHSIEVYGMDYWGQGTQVTVSS”, the “polyreactivity (PSR sort gate)” value was “low polyreactivity”.

In the case of “QVQLVESGGGLVQAGGSLRLICAASGFTLDWYVMGWYRQAPGKERELVAAISSSGGRTYYADSVKGRFTISRDNEKNTVYLQMNSLKPEDPAVYYCAARNKYGGYPYGYDYWGQGTQVTVSS”, the “polyreactivity (PSR sort gate)” value is reported as “high polyreactivity”.

With “QVQLVESGGGLVQAGGSLRLSCAASGRTFTHYAMGWYRQAPGKERELVAAISRSGGTTYYADSVKGRFTISRDNAKSTVYLQMNSLKPEDTAVYYCNAEVVDFELGVFEDYYWAYDYWGQGTQVTVSS” the “polyreactivity (PSR sort gate)” value was “high polyreactivity”.

For “QVQLVESGRGLVQAGGSLRLSCAASGRTVWVYTMGWYRQAPGKERELVAAITLSGGSTYYADSVKGRFTISRDNAKNTVYLQMNSLKPEDTAVYYSNARPYYYTYRHSQYYYWGQGTQVTVSS”, the “polyreactivity (PSR sort gate)” value was “high polyreactivity”.

In the case of “QVQLVESGGGLVKAGGSLRLSCADSGSIFWYYTMGRYRQAPGKEREFVAAISWSGGGSTYYADSVKGRFTISRENAKYTVYLQMNSLKPEDTAVYYCNGDWTSYGFVTRLDYWGHGTQVTVSS”, the “polyreactivity (PSR sort gate)” value is reported as “low polyreactivity”.

In the case of “QVQLVESGGGLVQAGGSLRLSCAASGLTFYDYAMGWYRQAPGKERELVAAISSGGSTYYADSVKGRFTISRDNAKNTVYLHMNSLKPEDTAVYYCAARPAYRVHAMGYWGQGTQVTVSS”, the “polyreactivity (PSR sort gate)” value is reported as “low polyreactivity”.

In the case of “QVQLVESGGGLVQARGSLRLSCAASGSISDYYAMGWYRQAPGKERELVAAISWDGGSTYYADSVKGRFTISRDNAKNTVYLQLNSLKPEDTAVYYCNAGSGASVGNNILYDYWGQGTQVTVSS”, the “polyreactivity (PSR sort gate)” value is reported as “low polyreactivity”.

In the case of “QVQLVESGGGLVQAGGSLRLSCAASGSIFYNYAMGWYRQAPGKERQLVATITRSDGSTYYADSVKGRFTISRDNAKNTVYLQMNSLKPEDTAVYYCNADSLWDSAFGYDYWGQGTQVTVSS”, the “polyreactivity (PSR sort gate)” value is reported as “low polyreactivity”.

In the case of “QVKLVESGGGLVQAGGSLSLSCAASARIFSAYAMGWYRQAPGKEMELVAAISYSGGSTYYADSVKGRFTIARDNAKNTVYLQMNSLKPEDTADYYCAADTVYGYQWGQGTQVTVSS”, the “polyreactivity (PSR sort gate)” value is reported as “low polyreactivity”.

With “QVQLVESGGGLVQAGGSLRLSCAASGLIFLGYARGWYRQSPGKERELVASIRTGGSTSYADSVKGRFTISRDNAKNTVYLQMNSLKPEDTAVYYCAADRGRPNLPGDYWGQGTQVTVSS” the “polyreactivity (PSR sort gate)” value was “low polyreactivity”.

With “QVQLVESGGGLVQAGGSLRLSCAASGRIFGVYAMGWYRQAPGKEREFVARISWHGGRTYYADSVKGRFTISRDNAKNTVYLQMNSLKPEDTAVYYCAADHGYPSRLDYWGQGTQVTVSS” the “polyreactivity (PSR sort gate)” value was “high polyreactivity”.

In the case of “QVQLVESGGGLVQAGGSLRLSCAASGFIFDYNAMGWYRQAPGKERELVAAIDITGGSTYYADSVKGRFTISRDNAKNTVYLQMNSLKPEDTAVYYCNRPYYIWVYSGYSGYDYWGQGTQVTVSS”, the “polyreactivity (PSR sort gate)” value is reported as “low polyreactivity”.

For “QVQLVESGGGLVQAGGSLRLSCAASGYIFSYYAMGWYRQAPGKEREFVAAIRWRGGSTYYADSVKGRFTISRDNAKNTVYLQMNSLKPEDTAVYYCAAGPGTSYYWGQGTQVTVSS”, the “polyreactivity (PSR sort gate)” value was “high polyreactivity”.
